Biological target: human STIM1 (human, UniProt Q13586 23-685, limits assumed)
Experiment: co-immunoprecipitation from CHO cell lysates, Western blot; repeated with cross-linker DSP and different detergents
Description: Next, the interaction of P311 with SOCE molecular machinery was examined experimentally. The interaction of P311 with known components of SOCE, such as STIM1 and Orai1, was studied. A GFP-myc-Orai1 plasmid and the mammalian expression plasmid containing the human STIM1 cDNA (OriGene, Inc.) were used. The plasmids were transfected into CHO cells and 36 hours after transfection, total cell lysates from CHO cells transiently expressing GFP-myc-Orai1 were incubated with either a polyclonal antibody against P311, or an anti-myc monoclonal antibody, with normal rabbit IgG serving as the control. […] Similar results were obtained when co-IP assays were repeated using reversible cross-linker DSP and different detergents in cell lysis buffer, including Triton X-100, NP-40 and CHAPS.

Chain of human STIM1 (Q13586 23-685 limits assumed): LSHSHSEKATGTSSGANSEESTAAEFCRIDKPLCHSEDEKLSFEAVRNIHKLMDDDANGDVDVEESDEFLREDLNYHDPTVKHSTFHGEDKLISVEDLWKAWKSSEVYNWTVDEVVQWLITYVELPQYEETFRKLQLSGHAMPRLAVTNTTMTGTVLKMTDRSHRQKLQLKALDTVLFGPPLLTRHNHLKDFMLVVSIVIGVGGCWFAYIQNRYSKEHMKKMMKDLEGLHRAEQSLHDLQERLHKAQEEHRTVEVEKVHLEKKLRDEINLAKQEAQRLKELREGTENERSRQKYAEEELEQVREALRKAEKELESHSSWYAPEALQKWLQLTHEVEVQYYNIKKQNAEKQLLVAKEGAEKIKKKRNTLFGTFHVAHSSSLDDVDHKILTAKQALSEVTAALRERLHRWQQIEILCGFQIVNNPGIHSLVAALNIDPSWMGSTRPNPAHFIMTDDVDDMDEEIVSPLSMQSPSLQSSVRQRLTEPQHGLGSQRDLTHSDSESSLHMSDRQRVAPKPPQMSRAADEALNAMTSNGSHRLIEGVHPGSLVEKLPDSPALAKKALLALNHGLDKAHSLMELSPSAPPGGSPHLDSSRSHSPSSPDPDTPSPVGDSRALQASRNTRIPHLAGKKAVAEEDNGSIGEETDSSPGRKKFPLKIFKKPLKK

B1: P311 (endogenous P311 present in CHO cells) (other)
chain: MVYYPGLLVWVSQEPFLYKEMEGSLTKGRLPVPKEVNRKKLEEARAASMTPPGSHELCFPNISYL
- binding result: no binding

From patent US20100061942A1 (UNIVERSITY OF MEDICINE AND DENTISTRY OF NEW JERSEY, published 2010)
